# Measured values taken from paper PMC10536470, “Reducing the virulence of Pseudomonas aeruginosa by using multiple quorum-quenching enzymes” (Journal of Industrial Microbiology & Biotechnology, 2023).
# Tested on: CCCCCCCCCC(=O)CC(=O)N[C@H]1CCOC1=O
# Assay: purified protein
# Format: biochemical, Chryseobacterium sp. StRB126
# Conditions: bicine 2.5 mM pH 8.0, 50 mM NaCl, 0.2 mM ZnCl2, 0.5% DMSO, 30 °C, substrate 0.2-2 mM
substance,measurement,value
AidC (Chryseobacterium sp. StRB126),Km,560 ± 10 µM
same,kcat,250 ± 18 s⁻¹
